Data on three substances can be found in patent publication US7105166.

The target of experiment [1] is CTLA4Ig (human). Nature of the experiment: solid phase competition of 125I-B7Ig binding to immobilized CTLA4Ig.
Experiment [2] has as its target CTLA4Ig (human). Description: 125I-B7Ig (4 nM) on plate-coated CTLA4Ig.
Experiment [3] has as its target CTLA4Ig (human). Nature of the experiment: Scatchard analysis of competition data, 125I-B7Ig on immobilized CTLA4Ig.
Experiment [4] concerns the target CD28 expressed on transfected cells (human) (UniProt P10747). Nature of the experiment: inhibition of 125I-B7Ig binding to cell surface expressed CD28.
The target of experiment [5] is CD28Ig (human) [IgG part: P01857]. Nature of the experiment: inhibition of 125I-B7Ig binding to immobilized CD28Ig.
In experiment [6] the target is B7Ig (human) (UniProt P33681). Nature of the experiment: solid phase competition of 125I-B7Ig binding to immobilized CTLA4Ig.
The target in experiment [7] is B7 antigen (B7-1, CD80) expressed on cells (human) (UniProt P33681). Description: cell-based or functional assay.

The term IC50 denotes the concentration at which inhibition is half-maximal. A lower IC50 goes with higher potency. In general, Kd refers to the constant that tells how readily two partners part at equilibrium. A high value points to lower affinity. In experiment [1], “B7Ig (from UniProt P33681 35-249; P01857 99-330) (Fc fusion)” yielded an IC50 of 175 nM. Further, in experiment [2], the radioactivity bound to wells treated without competitor was found to be 28300 cpm. Also, the Kd in experiment [3] was found to be 12 nM.
On to mAb 9.3 (antibody), for which the inhibition of ^125I-B7Ig binding in experiment [4] and in experiment [5] was above 90% in each case.
In experiment [6], mAb BB-1 (antibody) showed an IC50 of 22 nM. In experiment [7], this substance showed an inhibition of Th-induced IgM production of 65%.
